Assay results published in patent US20040170960A1.

Target: murine GM-CSF receptor (murine) (UniProt Q00941)
Assay: cell-based or functional assay

Chain of UniProt Q00941 (Q00941 30-388, chain 1 of 2): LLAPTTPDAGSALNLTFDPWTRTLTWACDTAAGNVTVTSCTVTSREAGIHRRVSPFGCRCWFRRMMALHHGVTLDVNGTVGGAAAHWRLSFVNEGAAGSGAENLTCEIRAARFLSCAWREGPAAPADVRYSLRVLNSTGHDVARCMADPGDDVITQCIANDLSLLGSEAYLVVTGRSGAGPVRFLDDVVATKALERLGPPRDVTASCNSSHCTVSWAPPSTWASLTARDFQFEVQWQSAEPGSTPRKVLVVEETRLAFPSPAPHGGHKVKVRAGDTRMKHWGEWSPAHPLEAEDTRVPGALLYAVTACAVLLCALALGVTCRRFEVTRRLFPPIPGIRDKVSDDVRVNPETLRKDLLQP
Chain of UniProt Q00941 (P26955 23-896, chain 2 of 2, further chain): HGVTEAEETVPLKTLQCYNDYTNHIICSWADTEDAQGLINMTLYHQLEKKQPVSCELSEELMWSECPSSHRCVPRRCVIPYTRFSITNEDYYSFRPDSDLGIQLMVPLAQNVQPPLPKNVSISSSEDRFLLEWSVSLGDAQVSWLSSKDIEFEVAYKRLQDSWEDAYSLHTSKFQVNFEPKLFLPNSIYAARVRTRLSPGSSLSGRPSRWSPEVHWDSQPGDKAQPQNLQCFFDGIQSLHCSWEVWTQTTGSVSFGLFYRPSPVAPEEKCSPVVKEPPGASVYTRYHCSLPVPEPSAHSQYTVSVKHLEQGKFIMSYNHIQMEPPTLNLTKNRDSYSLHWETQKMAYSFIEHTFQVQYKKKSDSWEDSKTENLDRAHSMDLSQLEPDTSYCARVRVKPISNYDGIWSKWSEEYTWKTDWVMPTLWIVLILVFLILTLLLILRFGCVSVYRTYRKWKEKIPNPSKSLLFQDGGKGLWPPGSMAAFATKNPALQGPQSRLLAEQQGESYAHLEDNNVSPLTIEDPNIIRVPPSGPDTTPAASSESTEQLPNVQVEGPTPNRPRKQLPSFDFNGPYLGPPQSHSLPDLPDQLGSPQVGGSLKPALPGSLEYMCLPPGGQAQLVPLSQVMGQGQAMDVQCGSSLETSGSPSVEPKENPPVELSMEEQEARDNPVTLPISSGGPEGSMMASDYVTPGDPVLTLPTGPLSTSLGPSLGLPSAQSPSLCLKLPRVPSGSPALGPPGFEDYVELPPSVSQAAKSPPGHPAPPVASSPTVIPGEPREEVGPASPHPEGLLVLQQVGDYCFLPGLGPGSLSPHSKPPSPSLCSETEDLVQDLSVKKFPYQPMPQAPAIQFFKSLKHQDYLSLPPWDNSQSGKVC

proliferation of FDC-P1 cells (Biotrak BrdU cell proliferation ELISA): 25%
Substance: murine GM-CSF fused to the S. cerevesiae Gas1 GPI modification signal sequence (from UniProt P01587 18-141; P22146 474-559) (other; the values are: proliferation increase vs soluble GM-CSF)
